Reference: patent US20140242080A1 (Hoffmann-La Roche, published 2014)

Experiments:
[1] = biological target: T1, human MCSP expressed on tumor cells (Colo-38, WM266-4, A375, MV-3, HCT-116) (human, UniProt Q6UVK1 30-2322); assay: flow cytometry on Colo-38 cells, 50 nM
T1 construct: whole, on cells; also called huMCSP; MCSP on cells
Method: (§1) Binding of the different bispecific constructs to CD3 on Jurkat cells (ATCC #TIB-152), and the respective tumor antigen on target cells, was determined by FACS. Briefly, cells were harvested, counted and checked for viability. 0.15-0.2 million cells per well (in PBS containing 0.1% BSA; 90 μl) were plated in a round-bottom 96-well plate and incubated with the indicated concentration of the bispecific constructs and corresponding IgG controls (10 μl) for 30 min at 4° C. […] After the incubation, cells were centrifuged (5 min, 350×g), washed with 150 μl PBS containing 0.1% BSA, resuspended and incubated for further 30 min at 4° C. with 12 μl/well of a FITC- or PE-conjugated secondary antibody. Bound constructs were detected using a FACSCantoII (Software FACS Diva). The “(scFv)₂” molecule was detected using a FITC-conjugated anti-His antibody (Lucerna, #RHIS-45F-Z). For all other molecules, a FITC- or PE-conjugated AffiniPure F(ab′)2 Fragment goat anti-human IgG Fcγ Fragment Specific (Jackson Immuno Research Lab #109-096-098/working solution 1:20, or #109-116-170/working solution 1:80, respectively) was used. Cells were washed by addition of 120 μl/well PBS containing 0.1% BSA and centrifugation at 350×g for 5 min. A second washing step was performed with 150 μl/well PBS containing 0.1% BSA. […] EC50 values were calculated using the GraphPad Prism software.
(§2) In a first experiment, different bispecific constructs targeting human MCSP and human CD3 were analyzed by flow cytometry for binding to human CD3 expressed on Jurkat, human T cell leukaemia cells, or to human MCSP on Colo-38 human melanoma cells.

[2] = biological target: T2, human CD3 expressed on Jurkat cells (human, UniProt P07766 23-207); assay: flow cytometry on Jurkat cells, 50 nM
T2 construct: CD3 complex on Jurkat T cells; also called CD3 on Jurkat cells; huCD3
Method: as §1, §2

[3] = biological target: T1, human MCSP expressed on tumor cells …; assay: cell-based or functional assay
[4] = biological target: T2, human CD3 expressed on Jurkat cells; assay: flow cytometry on Jurkat cells
Method: as §1
As a control, the equivalent maximum concentration of the corresponding IgGs and the background staining due to the labeled 2ndary antibody (goat anti-human FITC-conjugated AffiniPure F(ab′)2 Fragment, FcγFragment-specific, Jackson Immuno Research Lab #109-096-098) were assessed as well.

[5] = biological target: T1, human MCSP expressed on tumor cells …; assay: flow cytometry on WM266-4 cells
Method: as §1

[6] = biological target: T1, human MCSP expressed on tumor cells …; assay: cell-based or functional assay; remark: listed apart in the source
HuFcγRIIIa-V158-K6H6 = biological target: T3, HuFcγRIIIa-V158-K6H6 (human, UniProt P08637 17-208, limits assumed); assay: SPR Biacore T100, 25 C; receptor captured via anti-Penta His, construct as analyte; kinetic, one concentration (1000 nM)
T3 construct: His-tagged recombinant receptor captured by anti-Penta His antibody; also called human FcγRIIIa-V158; human FcγRIIIa
Method: For analyzing interaction of different Fc-variants with human FcγRIIIa-V158 and murine FcγRIV direct coupling of around 6,500 resonance units (RU) of the anti-Penta His antibody (Qiagen) is performed on a CM5 chip at pH 5.0 using the standard amine coupling kit (Biacore, Freiburg/Germany). HuFcγRIIIa-V158-K6H6 and muFcγRIV-aviHis-biotin are captured for 60 s at 4 and 10 nM respectively.
Constructs with different Fc-mutations are passed through the flow cells for 120 s at a concentration of 1000 nM with a flow rate of 30 μl/min. The dissociation is monitored for 220 s. Bulk refractive index differences are corrected for by subtracting the response obtained in a reference flow cell. […] Affinity for human FcγRIIIa-V158 and murine FcγRIV was determined for wild-type Fc using a concentration range from 500-4000 nM.

T2 sequence (P07766 23-207 limits assumed): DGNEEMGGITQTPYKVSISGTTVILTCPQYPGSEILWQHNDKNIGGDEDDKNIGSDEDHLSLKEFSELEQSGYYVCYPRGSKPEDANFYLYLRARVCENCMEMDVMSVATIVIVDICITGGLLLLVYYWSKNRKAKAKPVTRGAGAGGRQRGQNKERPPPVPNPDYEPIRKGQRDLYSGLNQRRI
T1 sequence (Q6UVK1 30-2322): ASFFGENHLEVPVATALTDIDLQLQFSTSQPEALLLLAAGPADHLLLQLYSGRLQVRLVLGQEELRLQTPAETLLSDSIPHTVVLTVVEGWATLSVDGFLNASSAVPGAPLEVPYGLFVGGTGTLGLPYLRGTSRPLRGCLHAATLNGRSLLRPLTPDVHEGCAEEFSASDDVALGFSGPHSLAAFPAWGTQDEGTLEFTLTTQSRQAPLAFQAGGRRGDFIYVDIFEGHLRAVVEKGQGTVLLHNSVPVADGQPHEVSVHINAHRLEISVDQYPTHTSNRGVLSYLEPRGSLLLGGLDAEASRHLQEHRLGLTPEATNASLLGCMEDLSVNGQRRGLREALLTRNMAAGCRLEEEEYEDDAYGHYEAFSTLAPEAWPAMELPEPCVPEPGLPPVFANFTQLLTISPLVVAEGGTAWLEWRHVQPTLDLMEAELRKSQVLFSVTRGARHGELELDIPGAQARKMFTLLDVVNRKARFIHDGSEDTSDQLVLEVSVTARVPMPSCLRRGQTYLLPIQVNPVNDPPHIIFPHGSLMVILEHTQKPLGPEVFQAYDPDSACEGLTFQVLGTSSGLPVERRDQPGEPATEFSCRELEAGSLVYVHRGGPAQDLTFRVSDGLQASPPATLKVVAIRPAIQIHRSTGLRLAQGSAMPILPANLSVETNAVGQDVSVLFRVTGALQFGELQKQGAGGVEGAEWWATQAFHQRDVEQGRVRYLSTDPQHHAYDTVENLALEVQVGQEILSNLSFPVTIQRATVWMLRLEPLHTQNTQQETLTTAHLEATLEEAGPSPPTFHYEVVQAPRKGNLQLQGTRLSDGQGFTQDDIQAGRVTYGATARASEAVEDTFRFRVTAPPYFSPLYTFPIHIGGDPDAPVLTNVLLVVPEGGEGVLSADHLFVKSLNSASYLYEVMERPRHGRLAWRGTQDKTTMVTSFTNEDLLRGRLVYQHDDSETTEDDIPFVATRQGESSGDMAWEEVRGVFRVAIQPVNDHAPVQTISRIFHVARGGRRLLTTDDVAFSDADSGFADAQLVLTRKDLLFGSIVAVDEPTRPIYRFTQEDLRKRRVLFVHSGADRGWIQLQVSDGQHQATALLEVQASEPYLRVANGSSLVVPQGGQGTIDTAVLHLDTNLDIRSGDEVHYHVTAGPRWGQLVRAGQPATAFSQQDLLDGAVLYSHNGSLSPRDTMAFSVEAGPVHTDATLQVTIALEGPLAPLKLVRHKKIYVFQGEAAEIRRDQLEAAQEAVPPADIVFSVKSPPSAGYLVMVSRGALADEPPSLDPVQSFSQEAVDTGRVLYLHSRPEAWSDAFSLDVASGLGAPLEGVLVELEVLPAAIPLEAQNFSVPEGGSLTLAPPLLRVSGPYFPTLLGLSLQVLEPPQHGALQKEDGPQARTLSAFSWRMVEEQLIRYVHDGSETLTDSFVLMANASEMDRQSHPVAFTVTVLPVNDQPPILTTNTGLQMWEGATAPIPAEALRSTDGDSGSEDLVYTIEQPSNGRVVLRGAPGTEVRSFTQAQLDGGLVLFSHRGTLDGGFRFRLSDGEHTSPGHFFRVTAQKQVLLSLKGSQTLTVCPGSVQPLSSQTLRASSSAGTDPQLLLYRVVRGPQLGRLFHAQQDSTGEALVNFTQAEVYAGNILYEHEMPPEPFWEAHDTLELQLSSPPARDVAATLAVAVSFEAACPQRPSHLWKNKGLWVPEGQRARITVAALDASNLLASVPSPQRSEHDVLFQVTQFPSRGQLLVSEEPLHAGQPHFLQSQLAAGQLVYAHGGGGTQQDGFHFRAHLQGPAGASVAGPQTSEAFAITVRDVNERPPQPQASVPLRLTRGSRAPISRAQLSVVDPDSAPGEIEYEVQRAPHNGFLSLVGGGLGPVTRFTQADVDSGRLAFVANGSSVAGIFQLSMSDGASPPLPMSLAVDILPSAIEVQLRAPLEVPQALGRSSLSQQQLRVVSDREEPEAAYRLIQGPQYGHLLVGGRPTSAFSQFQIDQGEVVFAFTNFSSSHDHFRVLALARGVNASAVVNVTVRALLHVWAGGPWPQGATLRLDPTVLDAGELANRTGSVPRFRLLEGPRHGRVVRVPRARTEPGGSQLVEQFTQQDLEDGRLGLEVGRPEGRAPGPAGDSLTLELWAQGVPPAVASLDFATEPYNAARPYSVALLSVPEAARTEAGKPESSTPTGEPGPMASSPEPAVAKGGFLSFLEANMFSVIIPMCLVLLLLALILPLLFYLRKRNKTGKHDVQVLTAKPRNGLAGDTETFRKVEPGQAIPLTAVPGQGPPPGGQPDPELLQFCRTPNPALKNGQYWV
T3 sequence (P08637 17-208 F176V limits assumed): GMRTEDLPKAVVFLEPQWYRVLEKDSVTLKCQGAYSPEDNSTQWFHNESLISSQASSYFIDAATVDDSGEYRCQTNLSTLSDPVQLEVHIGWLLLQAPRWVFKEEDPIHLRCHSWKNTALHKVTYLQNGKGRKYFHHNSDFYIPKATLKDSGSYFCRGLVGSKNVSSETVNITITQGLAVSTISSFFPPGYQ

Binder	binding result [1]	binding result [2]	EC50 of T cell-mediated killing (LDH release), MV-3 cells, human PBMCs E:T 10:1, 21 h [3]	EC50 of T cell-mediated killing (LDH release), WM266-4 cells, human PBMCs E:T 10:1, 21 h [3]	EC50 [4]	EC50 [5]	EC50 [pM] of T cell-mediated killing (LDH release), MV-3 cells, human PBMCs E:T 10:1, about 24 h [6]	EC50 [pM] of T cell-mediated killing (LDH release), WM266-4 cells, human PBMCs E:T 10:1, about 24 h [6]	Kd (HuFcγRIIIa-V158-K6H6)
“1+1 IgG scFab, one armed inverted” (anti-MCSP/anti-huCD3) (bispecific antibody) chain 1: DIVLTQSPSSLSASLGDRVTISCSASQGIRNYLNWYQQRPDGTVKLLIYYTSSLHSGVPSRFSGSGSGTDYSLTISNLEPEDIATYYCQQYSKLPWTFGGGTKLEIKRTVAAPSVFIFPPSDEQLKSGTASVVCLLNNFYPREAKVQWKVDNALQSGNSQESVTEQDSKDSTYSLSSTLTLSKADYEKHKVYACEVTHQGLSSPVTKSFNRGECSGGGSGGGSEGGGSEGGGSEGGGSEGGGSGGGSGEVQLQESGPGLVKPSQSLSLTCSVTGYSITSGYYWNWIRQFPGNKLEWMGYITYDGSNNYNPSLKNRISITRDTSKNQFFLKLNSVTTEDTATYYCADFDYWGQGTTLTVSSASTKGPSVFPLAPSSKSTSGGTAALGCLVKDYFPEPVTVSWNSGALTSGVHTFPAVLQSSGLYSLSSVVTVPSSSLGTQTYICNVNHKPSNTKVDKKVEPKSCDGGGGSGGGGSGAQDKTHTCPPCPAPEAAGGPSVFLFPPKPKDTLMISRTPEVTCVVVDVSHEDPEVKFNWYVDGVEVHNAKTKPREEQYNSTYRVVSVLTVLHQDWLNGKEYKCKVSNKALPAPIEKTISKAKGQPREPQVCTLPPSRDELTKNQVSLSCAVKGFYPSDIAVEWESNGQPENNYKTTPPVLDSDGSFFLVSKLTVDKSRWQQGNVFSCSVMHEALHNHYTQKSLSLSPGK chain 2: not shown chain 3: not shown	binds	binds	–	–	–	–	–	–	–
2 + 1 IgG Crossfab; VH/VL exchange (LC007/V9) (anti-MCSP/anti-huCD3) (bispecific antibody, vectors second heavy chain:light chain:first heavy chain-heavy chain Crossfab:light chain Crossfab 1:2:1:1; also called 2+1 IgG Crossfab (V9)) chain 1: not shown chain 2: DIVLTQSPSSLSASLGDRVTISCSASQGIRNYLNWYQQRPDGTVKLLIYYTSSLHSGVPSRFSGSGSGTDYSLTISNLEPEDIATYYCQQYSKLPWTFGGGTKLEIKRTVAAPSVFIFPPSDEQLKSGTASVVCLLNNFYPREAKVQWKVDNALQSGNSQESVTEQDSKDSTYSLSSTLTLSKADYEKHKVYACEVTHQGLSSPVTKSFNRGEC chain 3: DIQMTQSPSSLSASVGDRVTITCRASQDIRNYLNWYQQKPGKAPKLLIYYTSRLESGVPSRFSGSGSGTDYTLTISSLQPEDFATYYCQQGNTLPWTFGQGTKVEIKSSASTKGPSVFPLAPSSKSTSGGTAALGCLVKDYFPEPVTVSWNSGALTSGVHTFPAVLQSSGLYSLSSVVTVPSSSLGTQTYICNVNHKPSNTKVDKKVEPKSCGGGGSGGGGSEVQLQESGPGLVKPSQSLSLTCSVTGYSITSGYYWNWIRQFPGNKLEWMGYITYDGSNNYNPSLKNRISITRDTSKNQFFLKLNSVTTEDTATYYCADFDYWGQGTTLTVSSASTKGPSVFPLAPSSKSTSGGTAALGCLVKDYFPEPVTVSWNSGALTSGVHTFPAVLQSSGLYSLSSVVTVPSSSLGTQTYICNVNHKPSNTKVDKKVEPKSCDKTHTCPPCPAPEAAGGPSVFLFPPKPKDTLMISRTPEVTCVVVDVSHEDPEVKFNWYVDGVEVHNAKTKPREEQYNSTYRVVSVLTVLHQDWLNGKEYKCKVSNKALGAPIEKTISKAKGQPREPQVCTLPPSRDELTKNQVSLSCAVKGFYPSDIAVEWESNGQPENNYKTTPPVLDSDGSFFLVSKLTVDKSRWQQGNVFSCSVMHEALHNHYTQKSLSLSPGK chain 4: EVQLVESGGGLVQPGGSLRLSCAASGYSFTGYTMNWVRQAPGKGLEWVALINPYKGVSTYNQKFKDRFTISVDKSKNTAYLQMNSLRAEDTAVYYCARSGYYGDSDWYFDVWGQGTLVTVSSASVAAPSVFIFPPSDEQLKSGTASVVCLLNNFYPREAKVQWKVDNALQSGNSQESVTEQDSKDSTYSLSSTLTLSKADYEKHKVYACEVTHQGLSSPVTKSFNRGEC	–	–	0.0092 nM	0.0331 nM	1.66 nM	0.95 nM	10 pM	12.4 pM	–
“1+1 IgG scFab, one armed” (anti-MCSP/anti-huCD3) (bispecific antibody) chain 1: not shown chain 2: not shown chain 3: DIVLTQSPSSLSASLGDRVTISCSASQGIRNYLNWYQQRPDGTVKLLIYYTSSLHSGVPSRFSGSGSGTDYSLTISNLEPEDIATYYCQQYSKLPWTFGGGTKLEIKRTVAAPSVFIFPPSDEQLKSGTASVVCLLNNFYPREAKVQWKVDNALQSGNSQESVTEQDSKDSTYSLSSTLTLSKADYEKHKVYACEVTHQGLSSPVTKSFNRGEC	binds	binds	–	–	–	–	–	–	–
2 + 1 IgG Crossfab, inverted; CL/CH1 exchange (LC007/anti-CD3) (anti-MCSP/anti-huCD3) (bispecific antibody, also called 2+1 IgG Crossfab, inverted (anti-CD3)) chain 1: DIVLTQSPSSLSASLGDRVTISCSASQGIRNYLNWYQQRPDGTVKLLIYYTSSLHSGVPSRFSGSGSGTDYSLTISNLEPEDIATYYCQQYSKLPWTFGGGTKLEIKRTVAAPSVFIFPPSDEQLKSGTASVVCLLNNFYPREAKVQWKVDNALQSGNSQESVTEQDSKDSTYSLSSTLTLSKADYEKHKVYACEVTHQGLSSPVTKSFNRGEC chain 2: EVQLQESGPGLVKPSQSLSLTCSVTGYSITSGYYWNWIRQFPGNKLEWMGYITYDGSNNYNPSLKNRISITRDTSKNQFFLKLNSVTTEDTATYYCADFDYWGQGTTLTVSSASTKGPSVFPLAPSSKSTSGGTAALGCLVKDYFPEPVTVSWNSGALTSGVHTFPAVLQSSGLYSLSSVVTVPSSSLGTQTYICNVNHKPSNTKVDKKVEPKSCDKTHTCPPCPAPEAAGGPSVFLFPPKPKDTLMISRTPEVTCVVVDVSHEDPEVKFNWYVDGVEVHNAKTKPREEQYNSTYRVVSVLTVLHQDWLNGKEYKCKVSNKALGAPIEKTISKAKGQPREPQVCTLPPSRDELTKNQVSLSCAVKGFYPSDIAVEWESNGQPENNYKTTPPVLDSDGSFFLVSKLTVDKSRWQQGNVFSCSVMHEALHNHYTQKSLSLSPGK chain 3: QAVVTQESALTTSPGETVTLTCRSSTGAVTTSNYANWVQEKPDHLFTGLIGGTNKRAPGVPARFSGSLIGDKAALTITGAQTEDEAIYFCALWYSNLWVFGGGTKLTVLSSASTKGPSVFPLAPSSKSTSGGTAALGCLVKDYFPEPVTVSWNSGALTSGVHTFPAVLQSSGLYSLSSVVTVPSSSLGTQTYICNVNHKPSNTKVDKKVEPKSC chain 4: not shown	–	–	–	–	32 nM	3.4 nM	3 pM	7.1 pM	–
“2+1 IgG scFab, LALA” (anti-MCSP/anti-huCD3) (bispecific antibody, Fc with L234A L235A; also called Fc-LALA; copies: 2 + 1 + 1) chain 1: DIVLTQSPSSLSASLGDRVTISCSASQGIRNYLNWYQQRPDGTVKLLIYYTSSLHSGVPSRFSGSGSGTDYSLTISNLEPEDIATYYCQQYSKLPWTFGGGTKLEIKRTVAAPSVFIFPPSDEQLKSGTASVVCLLNNFYPREAKVQWKVDNALQSGNSQESVTEQDSKDSTYSLSSTLTLSKADYEKHKVYACEVTHQGLSSPVTKSFNRGEC chain 2: not shown chain 3: EVQLQESGPGLVKPSQSLSLTCSVTGYSITSGYYWNWIRQFPGNKLEWMGYITYDGSNNYNPSLKNRISITRDTSKNQFFLKLNSVTTEDTATYYCADFDYWGQGTTLTVSSASTKGPSVFPLAPSSKSTSGGTAALGCLVKDYFPEPVTVSWNSGALTSGVHTFPAVLQSSGLYSLSSVVTVPSSSLGTQTYICNVNHKPSNTKVDKKVEPKSCDKTHTCPPCPAPEAAGGPSVFLFPPKPKDTLMISRTPEVTCVVVDVSHEDPEVKFNWYVDGVEVHNAKTKPREEQYNSTYRVVSVLTVLHQDWLNGKEYKCKVSNKALPAPIEKTISKAKGQPREPQVCTLPPSRDELTKNQVSLSCAVKGFYPSDIAVEWESNGQPENNYKTTPPVLDSDGSFFLVSKLTVDKSRWQQGNVFSCSVMHEALHNHYTQKSLSLSPGK	binds	binds	–	–	–	–	–	–	2130 nM
